Laboratory results reported in paper PMC9482650, “Quantitative fragmentomics allow affinity mapping of interactomes” (Nature Communications, 2022).

What was measured:
Experiment in all cases: holdup assay
Set-up in all cases: key: below the threshold = too weak to quantify, mostly under pKd 3.1 to 4
RIMS2, Q9UQ26 = molecular target: RIMS2, Q9UQ26
PDZD2_3, O15018 = molecular target: T1, PDZD2_3, O15018
T1 sequence (O15018 581-682, limits assumed, looked up): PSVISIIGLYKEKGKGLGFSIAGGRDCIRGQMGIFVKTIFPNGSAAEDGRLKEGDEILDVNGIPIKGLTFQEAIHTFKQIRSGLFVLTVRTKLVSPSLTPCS

PARD6G, Q9BYG4 = molecular target: T2, PARD6G, Q9BYG4
T2 sequence (Q9BYG4 153-261, limits assumed, looked up): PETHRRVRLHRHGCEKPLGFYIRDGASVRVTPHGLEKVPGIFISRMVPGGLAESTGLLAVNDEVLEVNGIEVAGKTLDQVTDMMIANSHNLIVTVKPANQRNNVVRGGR

MPP5, Q8N3R9 = molecular target: T3, MPP5, Q8N3R9
T3 sequence (Q8N3R9 251-346, limits assumed, looked up): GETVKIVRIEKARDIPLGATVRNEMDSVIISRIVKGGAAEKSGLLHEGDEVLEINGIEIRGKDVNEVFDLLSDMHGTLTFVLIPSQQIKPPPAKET

SNTA1, Q13424 = molecular target: T4, SNTA1, Q13424
T4 sequence (Q13424 82-180, limits assumed, looked up): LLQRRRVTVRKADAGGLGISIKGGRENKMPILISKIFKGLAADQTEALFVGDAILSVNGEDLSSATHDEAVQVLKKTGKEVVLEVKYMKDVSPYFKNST

SDCBP_1, O00560 = molecular target: SDCBP_1, O00560
PDZD8, Q8NEN9 = molecular target: T5, PDZD8, Q8NEN9
T5 sequence (Q8NEN9 361-459, limits assumed, looked up): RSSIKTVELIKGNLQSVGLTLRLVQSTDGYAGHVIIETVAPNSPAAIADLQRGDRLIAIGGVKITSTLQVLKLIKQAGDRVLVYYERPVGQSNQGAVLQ

GRIP2_2, Q9C0E4 = molecular target: GRIP2_2, Q9C0E4
PDZRN4_2, Q6ZMN7 = molecular target: PDZRN4_2, Q6ZMN7
PDZD9, Q8IXQ8 = molecular target: PDZD9, Q8IXQ8
SHANK3, Q9BYB0 = molecular target: T6, SHANK3, Q9BYB0
T6 sequence (Q9BYB0 641-750, limits assumed, looked up): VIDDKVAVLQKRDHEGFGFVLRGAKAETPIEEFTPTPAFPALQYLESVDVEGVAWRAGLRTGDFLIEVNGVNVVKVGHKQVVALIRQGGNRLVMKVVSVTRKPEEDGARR

PDZD7_2, Q9H5P4 = molecular target: T7, PDZD7_2, Q9H5P4
T7 sequence (Q9H5P4 205-303, limits assumed, looked up): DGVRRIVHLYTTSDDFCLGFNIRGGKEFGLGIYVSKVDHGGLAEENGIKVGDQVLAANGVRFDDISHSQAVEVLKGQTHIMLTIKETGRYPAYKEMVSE

AHNAK2, Q8IVF2 = molecular target: AHNAK2, Q8IVF2
MAGI1_3, Q96QZ7 = molecular target: MAGI1_3, Q96QZ7
MAGI1_4, Q96QZ7 = molecular target: MAGI1_4, Q96QZ7
NHERF2_1, Q15599 = molecular target: NHERF2_1, Q15599
DLG2_1, Q15700 = molecular target: DLG2_1, Q15700
MPDZ_3, O75970 = molecular target: T8, MPDZ_3, O75970
T8 sequence (O75970 372-473, limits assumed, looked up): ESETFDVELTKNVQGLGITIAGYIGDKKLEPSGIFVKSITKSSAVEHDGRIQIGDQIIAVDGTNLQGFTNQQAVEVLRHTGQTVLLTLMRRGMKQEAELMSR

APBA3_2, O96018 = molecular target: T9, APBA3_2, O96018
T9 sequence (O96018 480-570, limits assumed, looked up): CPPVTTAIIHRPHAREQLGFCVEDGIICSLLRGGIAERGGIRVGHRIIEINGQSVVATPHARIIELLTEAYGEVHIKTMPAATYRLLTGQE

PARD6B, Q9BYG5 = molecular target: T10, PARD6B, Q9BYG5
T10 sequence (Q9BYG5 152-260, limits assumed, looked up): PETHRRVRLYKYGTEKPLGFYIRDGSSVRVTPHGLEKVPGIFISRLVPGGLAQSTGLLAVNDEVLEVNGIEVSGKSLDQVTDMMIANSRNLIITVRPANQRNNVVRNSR

SHANK2, Q9UPX8 = molecular target: T11, SHANK2, Q9UPX8
T11 sequence (Q9UPX8 621-730, limits assumed, looked up): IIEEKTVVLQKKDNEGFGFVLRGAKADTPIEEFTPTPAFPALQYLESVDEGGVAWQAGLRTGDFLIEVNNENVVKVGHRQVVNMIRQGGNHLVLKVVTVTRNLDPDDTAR

MAGI3_3, Q5TCQ9 = molecular target: MAGI3_3, Q5TCQ9
MAST3, O60307 = molecular target: MAST3, O60307
PREX1_1, Q8TCU6 = molecular target: PREX1_1, Q8TCU6
PTPN13_5, Q12923 = molecular target: T12, PTPN13_5, Q12923
T12 sequence (Q12923 1877-1975, limits assumed, looked up): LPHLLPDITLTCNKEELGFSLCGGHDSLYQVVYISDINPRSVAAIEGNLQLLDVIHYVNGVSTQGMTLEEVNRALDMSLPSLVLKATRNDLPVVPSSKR

[1] = plain residues with an end cap or a label only (N-terminal biotin on a linker: ttds)
[2] = plain residues with an end cap or a label only (N-terminal biotin on a linker: none)

Chain of PREX1_1, Q8TCU6 (Q8TCU6 608-718): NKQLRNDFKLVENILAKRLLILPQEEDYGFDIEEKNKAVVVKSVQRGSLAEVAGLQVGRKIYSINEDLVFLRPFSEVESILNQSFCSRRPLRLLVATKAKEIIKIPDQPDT
Chain of MAST3, O60307 (O60307 945-1048): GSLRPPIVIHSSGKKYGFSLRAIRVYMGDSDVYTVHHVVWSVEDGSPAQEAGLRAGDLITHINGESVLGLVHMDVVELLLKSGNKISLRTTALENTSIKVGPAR
Chain of MAGI1_4, Q96QZ7 (Q96QZ7 other isoform, or with tags, fused parts or gaps): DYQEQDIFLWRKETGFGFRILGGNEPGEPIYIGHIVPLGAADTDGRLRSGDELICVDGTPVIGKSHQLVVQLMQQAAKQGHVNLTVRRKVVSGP
Chain of AHNAK2, Q8IVF2 (Q8IVF2 108-193): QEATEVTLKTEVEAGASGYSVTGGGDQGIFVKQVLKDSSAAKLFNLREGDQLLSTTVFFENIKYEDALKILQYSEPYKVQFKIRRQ
Chain of NHERF2_1, Q15599 (Q15599 9-91): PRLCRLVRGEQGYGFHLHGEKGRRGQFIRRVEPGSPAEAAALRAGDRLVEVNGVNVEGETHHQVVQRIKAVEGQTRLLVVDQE
Chain of PDZD9, Q8IXQ8 (Q8IXQ8 23-120): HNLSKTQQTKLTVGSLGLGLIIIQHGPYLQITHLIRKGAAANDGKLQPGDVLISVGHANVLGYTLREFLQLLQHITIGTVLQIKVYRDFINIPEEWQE
Chain of GRIP2_2, Q9C0E4 (Q9C0E4 137-245): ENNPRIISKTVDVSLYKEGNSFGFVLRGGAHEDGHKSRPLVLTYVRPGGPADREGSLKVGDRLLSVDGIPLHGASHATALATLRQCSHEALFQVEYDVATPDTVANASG
Chain of MAGI1_3, Q96QZ7 (Q96QZ7 638-725): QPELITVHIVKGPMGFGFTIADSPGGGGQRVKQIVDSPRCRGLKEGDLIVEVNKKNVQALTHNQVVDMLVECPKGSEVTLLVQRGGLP
Chain of SDCBP_1, O00560 (O00560 111-198): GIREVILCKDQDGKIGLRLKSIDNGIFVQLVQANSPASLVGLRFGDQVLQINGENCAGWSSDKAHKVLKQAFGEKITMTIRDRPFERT
Chain of PDZRN4_2, Q6ZMN7 (Q6ZMN7 389-498): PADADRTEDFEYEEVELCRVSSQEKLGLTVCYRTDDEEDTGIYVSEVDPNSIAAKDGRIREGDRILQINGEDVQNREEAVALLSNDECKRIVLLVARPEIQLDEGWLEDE
Chain of MAGI3_3, Q5TCQ9 (Q5TCQ9 572-655): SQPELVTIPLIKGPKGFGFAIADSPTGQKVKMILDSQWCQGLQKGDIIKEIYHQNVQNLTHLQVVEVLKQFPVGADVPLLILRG
Chain of RIMS2, Q9UQ26 (Q9UQ26 637-758): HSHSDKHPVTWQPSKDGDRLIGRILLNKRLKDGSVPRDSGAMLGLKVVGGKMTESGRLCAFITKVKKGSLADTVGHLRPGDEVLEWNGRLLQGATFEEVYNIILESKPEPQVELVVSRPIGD

B1: ASIC3, Q9UHC3 (peptide)
chain: HRTCYLVTQL
- pKd (RIMS2, Q9UQ26; [1]): below the threshold
- pKd (PDZD2_3, O15018; [1]): below the threshold
- pKd (PARD6G, Q9BYG4; [1]): below the threshold
- pKd (MPP5, Q8N3R9; [1]): below the threshold
- pKd (SNTA1, Q13424; [1]): 3.88
- pKd (SDCBP_1, O00560; [1]): below the threshold
- pKd (PDZD8, Q8NEN9; [1]): below the threshold
- pKd (GRIP2_2, Q9C0E4; [1]): 4.28
- pKd (PDZRN4_2, Q6ZMN7; [1]): below the threshold
- pKd (PDZD9, Q8IXQ8; [1]): below the threshold
- pKd (SHANK3, Q9BYB0; [1]): 5.52
- pKd (PDZD7_2, Q9H5P4; [1]): below the threshold
- pKd (AHNAK2, Q8IVF2; [1]): below the threshold
- pKd (MAGI1_3, Q96QZ7; [1]): below the threshold
- pKd (MAGI1_4, Q96QZ7; [1]): below the threshold
- pKd (NHERF2_1, Q15599; [1]): 4.56
- pKd (DLG2_1, Q15700; [1]): below the threshold
- pKd (MPDZ_3, O75970; [1]): 4.04
- pKd (APBA3_2, O96018; [1]): below the threshold
- pKd (PARD6B, Q9BYG5; [1]): below the threshold
- pKd (SHANK2, Q9UPX8; [1]): 4.93
- pKd (MAGI3_3, Q5TCQ9; [1]): below the threshold
- pKd (MAST3, O60307; [1]): 4.04
- pKd (PREX1_1, Q8TCU6; [1]): 3.99
- pKd (PTPN13_5, Q12923; [1]): below the threshold

B2: MERS-E, K9N5R3 (peptide)
chain: DSKPPLPPDEWV
- pKd (RIMS2, Q9UQ26; [2]): 4.39
- pKd (PDZD2_3, O15018; [2]): 3.89
- pKd (PARD6G, Q9BYG4; [2]): below the threshold
- pKd (MPP5, Q8N3R9; [2]): 4.03
- pKd (SNTA1, Q13424; [2]): below the threshold
- pKd (SDCBP_1, O00560; [2]): 4.12
- pKd (PDZD8, Q8NEN9; [2]): below the threshold
- pKd (GRIP2_2, Q9C0E4; [2]): below the threshold
- pKd (PDZRN4_2, Q6ZMN7; [2]): 3.75
- pKd (PDZD9, Q8IXQ8; [2]): below the threshold
- pKd (SHANK3, Q9BYB0; [2]): below the threshold
- pKd (PDZD7_2, Q9H5P4; [2]): below the threshold
- pKd (AHNAK2, Q8IVF2; [2]): below the threshold
- pKd (MAGI1_3, Q96QZ7; [2]): below the threshold
- pKd (MAGI1_4, Q96QZ7; [2]): below the threshold
- pKd (NHERF2_1, Q15599; [2]): below the threshold
- pKd (DLG2_1, Q15700; [2]): below the threshold
- pKd (MPDZ_3, O75970; [2]): below the threshold
- pKd (APBA3_2, O96018; [2]): below the threshold
- pKd (PARD6B, Q9BYG5; [2]): below the threshold
- pKd (SHANK2, Q9UPX8; [2]): below the threshold
- pKd (MAGI3_3, Q5TCQ9; [2]): below the threshold
- pKd (MAST3, O60307; [2]): below the threshold
- pKd (PREX1_1, Q8TCU6; [2]): below the threshold
- pKd (PTPN13_5, Q12923; [2]): below the threshold

B3: DGKZ, Q13574 (peptide)
chain: IQREDQETAV
- pKd (RIMS2, Q9UQ26; [1]): below the threshold
- pKd (PDZD2_3, O15018; [1]): below the threshold
- pKd (PARD6G, Q9BYG4; [1]): below the threshold
- pKd (MPP5, Q8N3R9; [1]): below the threshold
- pKd (SNTA1, Q13424; [1]): 5.37
- pKd (SDCBP_1, O00560; [1]): below the threshold
- pKd (PDZD8, Q8NEN9; [1]): below the threshold
- pKd (GRIP2_2, Q9C0E4; [1]): below the threshold
- pKd (PDZRN4_2, Q6ZMN7; [1]): below the threshold
- pKd (PDZD9, Q8IXQ8; [1]): below the threshold
- pKd (SHANK3, Q9BYB0; [1]): below the threshold
- pKd (PDZD7_2, Q9H5P4; [1]): below the threshold
- pKd (AHNAK2, Q8IVF2; [1]): below the threshold
- pKd (MAGI1_3, Q96QZ7; [1]): 4.57
- pKd (MAGI1_4, Q96QZ7; [1]): below the threshold
- pKd (NHERF2_1, Q15599; [1]): below the threshold
- pKd (DLG2_1, Q15700; [1]): 4.71
- pKd (MPDZ_3, O75970; [1]): below the threshold
- pKd (APBA3_2, O96018; [1]): 4.74
- pKd (PARD6B, Q9BYG5; [1]): below the threshold
- pKd (SHANK2, Q9UPX8; [1]): below the threshold
- pKd (MAGI3_3, Q5TCQ9; [1]): below the threshold
- pKd (MAST3, O60307; [1]): below the threshold
- pKd (PREX1_1, Q8TCU6; [1]): below the threshold
- pKd (PTPN13_5, Q12923; [1]): below the threshold

B4: DGKK, Q5KSL6 (peptide)
chain: DPLTPSRSQL
- pKd (RIMS2, Q9UQ26; [1]): below the threshold
- pKd (PDZD2_3, O15018; [1]): below the threshold
- pKd (PARD6G, Q9BYG4; [1]): below the threshold
- pKd (MPP5, Q8N3R9; [1]): below the threshold
- pKd (SNTA1, Q13424; [1]): below the threshold
- pKd (SDCBP_1, O00560; [1]): below the threshold
- pKd (PDZD8, Q8NEN9; [1]): below the threshold
- pKd (GRIP2_2, Q9C0E4; [1]): below the threshold
- pKd (PDZRN4_2, Q6ZMN7; [1]): 4.05
- pKd (PDZD9, Q8IXQ8; [1]): below the threshold
- pKd (SHANK3, Q9BYB0; [1]): below the threshold
- pKd (PDZD7_2, Q9H5P4; [1]): below the threshold
- pKd (AHNAK2, Q8IVF2; [1]): below the threshold
- pKd (MAGI1_3, Q96QZ7; [1]): below the threshold
- pKd (MAGI1_4, Q96QZ7; [1]): below the threshold
- pKd (NHERF2_1, Q15599; [1]): below the threshold
- pKd (DLG2_1, Q15700; [1]): below the threshold
- pKd (MPDZ_3, O75970; [1]): below the threshold
- pKd (APBA3_2, O96018; [1]): 4.47
- pKd (PARD6B, Q9BYG5; [1]): below the threshold
- pKd (SHANK2, Q9UPX8; [1]): below the threshold
- pKd (MAGI3_3, Q5TCQ9; [1]): below the threshold
- pKd (MAST3, O60307; [1]): below the threshold
- pKd (PREX1_1, Q8TCU6; [1]): below the threshold
- pKd (PTPN13_5, Q12923; [1]): below the threshold
